B1: Cdc31 (natural protein, S. cerevisiae, UniProt P06704 1-161, looked up)
chain: MSKNRSSLQSGPLNSELLEEQKQEIYEAFSLFDMNNDGFLDYHELKVAMKALGFELPKREILDLIDEYDSEGRHLMKYDDFYIVMGEKILKRDPLDEIKRAFQLFDDDHTGKISIKNLRRVAKELGETLTDEELRAMIEEFDLDGDGEINENEFIAICTDS
notes: Cdc31, S. cerevisiae; source: Sf9, baculovirus, co-expressed with GST-Sac3; in lysate and purified with the complex (glutathione Sepharose, heparin, SEC)
B2: Thp1 (natural protein, S. cerevisiae, UniProt Q08231 1-455, looked up)
chain: MDMANQLLDELAHGNFSHLTLNLSQNGREIAILQKQLTGFDDKQLETFVEQHPAMPNDTRFKIMCTSFLNYARDVDPWSAWSSSDLIFEFYQCLINCLINDNAPHIEMLIPVATRETEFIINLAGKLDSFHLQLHTRSHQFLSHISSILSRLFNSIKPPRGNASSTNIPGKQRILLYLVNKLNNIYFRIESPQLCSNIFKNFQPKSMLAHFNEYQLDQQIEYRYLLGRYYLLNSQVHNAFVQFNEAFQSLLNLPLTNQAITRNGTRILNYMIPTGLILGKMVKWGPLRPFLSQETIDNWSVLYKHVRYGNIQGVSLWLRQNERHLCARQLLIVLLEKLPMVTYRNLIKTVIKSWTTEWGQNKLPYSLIERVLQLSIGPTFEDPGAQEITIYNGIHSPKNVENVLVTLINLGLLRANCFPQLQLCVVKKTTMIQEIVPPVNERITKMFPAHSHVLW
notes: Thp1, S. cerevisiae; The theoretical mass of 195 kDa for TREX-2^1-805 fits whole chains of the four small subunits; source: Sf9, baculovirus, co-expressed with GST-Sac3; in lysate and purified with the complex (glutathione Sepharose, heparin, SEC)
B3: Sem1 (natural protein, S. cerevisiae, UniProt O94742 1-89, looked up)
chain: MSTDVAAAQAQSKIDLTKKKNEEINKKSLEEDDEFEDFPIDTWANGETIKSNAVTQTNIWEENWDDVEVDDDFTNELKAELDRYKRENQ
notes: Sem1, S. cerevisiae; source: Sf9, baculovirus, co-expressed with GST-Sac3; in lysate and purified with the complex (glutathione Sepharose, heparin, SEC)
B4: Sus1 (natural protein, S. cerevisiae, UniProt Q6WNK7 1-96, looked up)
chain: MTMDTAQLKSQIQQYLVESGNYELISNELKARLLQEGWVDKVKDLTKSEMNINESTNFTQILSTVEPKALEMVSDSTRETVLKQIREFLEEIVDTQ
notes: Sus1, S. cerevisiae; source: Sf9, baculovirus, co-expressed with GST-Sac3; in lysate and purified with the complex (glutathione Sepharose, heparin, SEC)

biological target: T1, Sac3 (residues 140-805) (S. cerevisiae, UniProt P46674 140-805); assay: SEC-SAXS; on-line HPLC with Superdex 200 Increase 3.2/300, beamline BM29 (ESRF), 20 °C; mass from I(0) against a BSA standard; conditions: both partners purified
T1 construct: Sac3, S. cerevisiae, residues 140-805 by the complex's name; the text says that residues 1-140 were deleted; also called Sac3 of TREX-2^140–805
T1 sequence (looked up): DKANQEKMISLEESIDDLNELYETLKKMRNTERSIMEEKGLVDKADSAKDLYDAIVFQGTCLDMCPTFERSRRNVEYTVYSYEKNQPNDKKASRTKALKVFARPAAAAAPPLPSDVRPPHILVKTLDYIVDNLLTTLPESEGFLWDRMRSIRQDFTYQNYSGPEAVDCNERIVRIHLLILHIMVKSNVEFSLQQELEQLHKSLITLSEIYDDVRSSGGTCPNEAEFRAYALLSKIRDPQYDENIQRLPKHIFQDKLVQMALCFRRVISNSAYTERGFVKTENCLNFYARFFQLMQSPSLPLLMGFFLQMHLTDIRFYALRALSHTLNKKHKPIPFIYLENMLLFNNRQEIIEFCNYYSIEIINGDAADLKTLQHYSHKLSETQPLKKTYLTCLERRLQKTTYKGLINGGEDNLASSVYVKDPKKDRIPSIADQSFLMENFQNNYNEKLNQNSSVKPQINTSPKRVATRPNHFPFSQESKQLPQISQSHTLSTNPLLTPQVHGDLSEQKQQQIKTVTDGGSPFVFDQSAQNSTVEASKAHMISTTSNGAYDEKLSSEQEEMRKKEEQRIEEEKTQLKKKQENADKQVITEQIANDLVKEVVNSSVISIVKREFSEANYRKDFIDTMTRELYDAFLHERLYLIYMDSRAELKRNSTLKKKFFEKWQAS

Binder	binding result
B1	binds
B2	binds
B3	binds
B4	binds

Reference: publication PMC4991852, “The Sac3 TPR-like region in the Saccharomyces cerevisiae TREX-2 complex is more extensive but independent of the CID region” (Journal of Structural Biology, 2016)
